Like-named read-outs stand apart in the source and are kept apart here.
Tested on: dopamine receptor D1+ or D2+ expressing cells in the CPu
Type: in vivo, mouse
Procedure: c-Fos activation with engineered AADC—Three groups of mice underwent FUS-BBBO procedure to target a single site at left striatum immediately after intravenous injection of recombinant protein AADC-IKVAV (SEQ ID NO: 23) (20 mg/mL, 250 mg/kg) or equivalent volume of PBS buffer (n=5 mice for FUS alone+L-DOPA group). After 48 h, the mice were given a single dose of L-DOPA (0.1 mg/mL, 2 mg/kg, i.p.; Spectrum Chemical) 10 min after injection of carbidopa (1 mg/mL, 25 mg/kg, i.p.; Sigma-Aldrich), both of which were dissolved in sterile saline containing 2.5 and 0.125 mg/mL ascorbic acid. […] After 2 hours, the mice were euthanized by transcardial perfusion, and their brains were extracted and sliced into 50 μm coronal sections following 24-48 hours of fixation.
The section displaying the strongest AADC fluorescence was selected as the representative for each mouse, and its adjacent section was stained separately to identify c-Fos and dopamine receptor D1 and D2 positive cells. The procedure was carried out as follows: (1) block sections in 10% normal goat serum (SouthernBiotech) and 0.3% Triton-X solution in PBS for 1 h at room temperature; (2) incubate with primary rabbit anti-c-Fos (1:2000, 2250S, Cell Signaling Technology) antibody in PBS with 0.3% Triton-X for 2 h at room temperature; (3) after washing three times in PBS (15 min each, the same as below), incubate with primary rat anti-D1 Dopamine Receptor (1:500, D2944, MilliporeSigma) and Guinea pig anti-Dopamine Receptor D2 (1:500, Cat. #376 205, Synaptic Systems) antibodies in 5% normal goat serum and 0.3% Triton-X solution in PBS overnight at 4° C.; (4) after washing three times, incubate with secondary goat anti-rabbit antibody conjugated to Alexa Fluor 647 (1:500, A-21245, ThermoFisher) in PBS with 0.3% Triton-X for 2 h at room temperature; (5) after washing three times, incubate with secondary goat anti-rat antibody conjugated to Alexa Fluor 546 (1:500, A-11081, ThermoFisher) and goat anti-Guinea Pig antibody conjugated to Alexa Fluor 488 (1:500, A-11073, ThermoFisher) in 5% normal goat serum and 0.3% Triton-X solution in PBS for 2 h at room temperature; (6) after washing three times, mount sections onto glass slides using the mounting media (Vector Laboratories) with DAPI and air-dry overnight in dark before imaging.
Within the left striatum region, a specific 5×9 binned rectangle area was selected corresponding to the highest observed AADC fluorescence in the adjacent AADC-stained section. Subsequently, images were captured of these areas using a 40× objective. The corresponding contralateral areas in the right striatum were also imaged.
In FIG. 7, we applied the following brightness (white) thresholds for the corresponding channels: 6045 (DAPI, nuclei, not shown), 15,000 (Cy3, D1R), 16,000 (green, D2R), and 6045 (far-red, c-Fos), with a gamma value of 1. In FIG. 11, we applied a Brightness (White) threshold of 6045 for both DAPI (nuclei, not shown) and far-red (c-Fos) channels, with a Gamma value of 1. The images were then overlayed, and the c-Fos+ cells were manually counted. Similarly, the GFAP+ cells were manually counted, as shown in FIG. 15c and FIG. 17, by applying a Brightness (White) threshold of 5686 and a Gamma value of 1 for both the DAPI (nuclei) and far-red (GFAP, purple) channels.
To manually count the c-Fos-positive cells in FIG. 7, three scorers (Z. H., S. N., and R. J.) independently assessed all c-Fos staining sites. R. J. served as the blinded scorer, and the averaged counts from all three scorers were rounded for the final statistical analysis.

| Molecule | c-Fos+ cells expressing D1+ or D2+, FUS-targeted region vs contralateral site (FUS alone + L-DOPA 2 mg/kg i.p., no enzyme) | c-Fos+ cells with no expression of D1+ or D2+ in vicinity of CPu, FUS-targeted vs contralateral (FUS-BBBO only without AADC-IKVAV (FUS alone+L-DOPA)) | c-Fos+ cells expressing D1+ or D2+, FUS-targeted region vs contralateral site (FUS+AADC-IKVAV 250 mg/kg i.v., L-DOPA 2 mg/kg i.p. after 48 h, perfused 2 h later) | c-Fos+ cells with no expression of D1+ or D2+ in vicinity of CPu, FUS-targeted vs contralateral (FUS+AADC-IKVAV alone) | c-Fos+ cells expressing D1+ or D2+, FUS-targeted region vs contralateral site (FUS+AADC-IKVAV without L-DOPA) | c-Fos+ cells with no expression of D1+ or D2+ in vicinity of CPu, FUS-targeted vs contralateral (FUS+AADC-IKVAV+L-DOPA) |
| --- | --- | --- | --- | --- | --- | --- |
| N[C@@H](Cc1ccc(O)c(O)c1)C(=O)O [L-DOPA, reference compound] | No significant change | no significant changes |  |  |  |  |
| AADC-IKVAV: aromatic-L-amino-acid decarboxylase (AADC) protein fused with short peptide IKVAV (SEQ ID NO: 23); CDS SEQ ID NO: 21 (protein, misc_feature 1..1602 Synthetic: AADC-IKVAV) MRGSHHHHHHGMASMTGGQQMGRDLYDDDDKDPMNASEFRRRGKEMVDYMANYMEGIEGRQVYPDVEPGYLRPLIPAAAPQEPDTFEDIINDVEKIIMPGVTHWHSPYFFAYFPTASSYPAMLADMLCGAIGCIGFSWAASPACTELETVMMDWLGKMLELPKAFLNEKAGEGGGVIQGSASEATLVALLAARTKVIHRLQAASPELTQAAIMEKLVAYSSDQAHSSVERAGLIGGVKLKAIPSDGNFAMRASALQEALERDKAAGLIPFFMVATLGTTTCCSFDNLLEVGPICNKEDIWLHVDAAYAGSAFICPEFRHLLNGVEFADSFNFNPHKWLLVNFDCSAMWVKKRTDLTGAFRLDPTYLKHSHQDSGLITDYRHWQIPLGRRFRSLKMWFVFRMYGVKGLQAYIRKHVQLSHEFESLVRQDPRFEICVEVILGLVCFRLKGSNKVNEALLQRINSAKKIHLVPCHLRDKFVLRFAICSRTVESAHVQRAWEHIKELAADVLRAEREGGSGSSGGSGGSGGSGIKVAV |  |  | 6.6 (±1.7) fold | no statistically significant changes | No significant change | no statistically significant changes |

Source: patent US20250195629A1, “SITE-SPECIFIC BRAIN THERAPEUTICS” (William Marsh Rice University, priority 2023, published 2025)
